Patent US20240018251A1 (BIOHENG THERAPEUTICS, published 2024)
Numbering of substitutions follows the chain as printed.

T1: FITC labeled BCMA (acrobiosystem, Cat. No. BCA-HF254) (UniProt Q02223 1-54, FITC labeled (site not stated))
T1 construct: Soluble labeled protein used to stain CAR-T cells; also called BCMA antigen protein; BCMA protein
T1 sequence (looked up): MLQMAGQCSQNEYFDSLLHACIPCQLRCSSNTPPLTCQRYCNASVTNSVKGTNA

B1: chimeric antigen receptor comprising humanized anti-BCMA single domain antibody BH60_V3, on CAR-T cells (other)
chain: EVQLVESGGGLVQPGGSLRLSCVVSGGIFTINDMAWVRQAPGKGLEWVAHISRSGSTYYRDSVKGRFTISRDNAKNSLYLQMNSLRAEDTAVYYCNSIDRPLSYGQGTLVTVSSTTTPAPRPPTPAPTIASQPLSLRPEACRPAAGGAVHTRGLDFACDIYIWAPLAGTCGVLLLSLVITLYCKRGRKKLLYIFKQPFMRPVQTTQEEDGCSCRFPEEEEGGCELRVKFSRSADAPAYQQGQNQLYNELNLGRREEYDVLDKRRGRDPEMGGKPRRKNPQEGLYNELQKDKMAEAYSEIGMKGERRRGKGHDGLYQGLSTATKDTYDALHMQALPPR
B2: chimeric antigen receptor comprising humanized anti-BCMA single domain antibody BH86_V1, on CAR-T cells (other)
chain: QVQLVESGGGLVQAGESLRLSCAASGRAISSIVMAWWRQTPGAEREFVASINRWGGTPYYSDSVKGRFTISRDNSKNTLYLQMNSLRAEDTAVYYCAAASTLDSGYDYWGQGTLVTVSTTTPAPRPPTPAPTIASQPLSLRPEACRPAAGGAVHTRGLDFACDIYIWAPLAGTCGVLLLSLVITLYCKRGRKKLLYIFKQPFMRPVQTTQEEDGCSCRFPEEEEGGCELRVKFSRSADAPAYQQGQNQLYNELNLGRREEYDVLDKRRGRDPEMGGKPRRKNPQEGLYNELQKDKMAEAYSEIGMKGERRRGKGHDGLYQGLSTATKDTYDALHMQALPPR
B3: chimeric antigen receptor comprising humanized anti-BCMA single domain antibody BH86_GKV2, on CAR-T cells (other)
chain: QEVLVESGGGLVQPGGSLRLSCAASGRAISSIVMAWWRQTPGAEREFVASINRWGGTPYYSDSVKGRFTISRDHAKNTLYLQMNSLKSADTAVYYCAAASTLDSGYDYWGPGTQVTVSTTTPAPRPPTPAPTIASQPLSLRPEACRPAAGGAVHTRGLDFACDIYIWAPLAGTCGVLLLSLVITLYCKRGRKKLLYIFKQPFMRPVQTTQEEDGCSCRFPEEEEGGCELRVKFSRSADAPAYQQGQNQLYNELNLGRREEYDVLDKRRGRDPEMGGKPRRKNPQEGLYNELQKDKMAEAYSEIGMKGERRRGKGHDGLYQGLSTATKDTYDALHMQALPPR
B4: chimeric antigen receptor comprising humanized anti-BCMA single domain antibody BH86_GKV3, on CAR-T cells (other)
chain: B3 chain with P111Q
B5: chimeric antigen receptor comprising humanized anti-BCMA single domain antibody BH86_GKV1, on CAR-T cells (other)
chain: B3 chain with K87R, S88A, A89E, P111H
B6: chimeric antigen receptor comprising humanized anti-BCMA single domain antibody BH86_V4, on CAR-T cells (other)
chain: B2 chain with Q111H
B7: chimeric antigen receptor comprising humanized anti-BCMA single domain antibody BH86_V6, on CAR-T cells (other)
chain: B2 chain with D62N, T69A, L79I, Y80H, A88S, Q111H
B8: chimeric antigen receptor comprising humanized anti-BCMA single domain antibody BH60_V1, on CAR-T cells (other)
chain: QVQLVESGGGLVQPGGSLRLSCAVSGGIFTINDMAWFRQAPGKQRELVAHISRSGSTYYRDSVKGRFTISRDNSKNTLYLQMNSLRAEDTATYYCNSIDRPLSYGQGTLVTVSTTTPAPRPPTPAPTIASQPLSLRPEACRPAAGGAVHTRGLDFACDIYIWAPLAGTCGVLLLSLVITLYCKRGRKKLLYIFKQPFMRPVQTTQEEDGCSCRFPEEEEGGCELRVKFSRSADAPAYQQGQNQLYNELNLGRREEYDVLDKRRGRDPEMGGKPRRKNPQEGLYNELQKDKMAEAYSEIGMKGERRRGKGHDGLYQGLSTATKDTYDALHMQALPPR
B9: chimeric antigen receptor comprising humanized anti-BCMA single domain antibody BH60_V5, on CAR-T cells (other)
chain: B8 chain with A23V, S62F
B10: chimeric antigen receptor comprising humanized anti-BCMA single domain antibody BH60_V6, on CAR-T cells (other)
chain: B8 chain with A23V, S62F, L78S, S84N
B11: chimeric antigen receptor comprising humanized anti-BCMA single domain antibody BH60_GKV1, on CAR-T cells (other)
chain: B8 chain with A23V, V24A, S74A, T77S, T92V
B12: chimeric antigen receptor comprising humanized anti-BCMA single domain antibody BH60_GKV2, on CAR-T cells (other)
chain: B8 chain with V24A, S74A, T77S, T92V, L109Q
B13: chimeric antigen receptor comprising humanized anti-BCMA single domain antibody BH86_V2, on CAR-T cells (other)
chain: EVQLVESGGGLVKPGGSLRLSCAASGRAISSIVMAWVRQAPGKGLEWVASINRWGGTPYYSAPVKGRFTISRDDSKNTLYLQMNSLKTEDTAVYYCAAASTLDSGYDYWGQGTLVTVSSTTTPAPRPPTPAPTIASQPLSLRPEACRPAAGGAVHTRGLDFACDIYIWAPLAGTCGVLLLSLVITLYCKRGRKKLLYIFKQPFMRPVQTTQEEDGCSCRFPEEEEGGCELRVKFSRSADAPAYQQGQNQLYNELNLGRREEYDVLDKRRGRDPEMGGKPRRKNPQEGLYNELQKDKMAEAYSEIGMKGERRRGKGHDGLYQGLSTATKDTYDALHMQALPPR

Target: T1, FITC labeled BCMA (acrobiosystem, Cat. …)
Test: flow cytometry, CAR-T cells stained with FITC labeled BCMA
Experimental: After culturing at 37° C. and 5% CO₂ for 10 days, FITC labeled BCMA (acrobiosystem, Cat. No. BCA-HF254) was used for binding specific staining, and the ability of the corresponding CAR-T cells to specifically bind to the BCMA antigen protein was detected by flow cytometry, which also reflected the expression level of the CAR molecule.

Binder | binding result
B1 | binds
B2 | binds
B3 | binds
B4 | binds
B5 | binds
B6 | binds
B7 | binds
B8 | binds
B9 | binds
B10 | binds
B11 | binds
B12 | binds
B13 | binds
